Data: the RNAGym collection of RNA variant scans (doi:10.7554/elife.90254)

B1: LINE1-full (parent)
chain: UACGUAGGUGGUUUUCCCCUGAUAGUGCUAAGGGGGCCUGGAAGUUUGGACUGGGCAGAGCUCAACACAGCGUGGCAAAGUGGCUGUGGCUAGACUGCCUCUCUGGAUUCCUCGUCACUCAGCAGGGCAUCUCUGAGAGAAAUGCC

Variants of: B1
Experiment: self-cleavage, relative activity (ratio to wild type); higher = more cleavage; in vitro, sequencing; the parent is a self-cleaving ribozyme

Variant	self-cleavage
U45G A121U	1.82
U45G A129U	0.67
U45G A136G	0.94
U45G A141G	1.32
U45G C68U	0.12
U45G C113A	0.98
U45G C120U	1.49
U45G G49A	1.25
U45G G88A	0.06
U45G G97A	0.07
U45G G106C	0.92
U45G G106U	0.64
U45G U46C	1.31
U45G U47A	1.19
U45G U62C	0.02
U45G U73A	1.49
U45G U87A	0.07
U45G U96C	0.05
U45G U109C	0.66
U45G U119G	0.44
U46A A57G	0.54
U46A A57U	0.08
U46A A64C	0.24
U46A A67G	0.22

Variant	self-cleavage
U46A A67U	0.1
U46A A69G	0.36
U46A A69U	0.05
U46A A77G	2.14
U46A A79G	1.06
U46A A79U	2.16
U46A A94G	0.16
U46A A107G	1.43
U46A A107U	1.36
U46A A121U	1.43
U46A A124G	0.8
U46A A124U	1.11
U46A A129U	0.78
U46A A136G	1.48
U46A A140G	0.9
U46A A140U	1.12
U46A A141G	1.36
U46A A141U	1.01
U46A A142G	1.45
U46A C68U	0.07
U46A C71A	0.25
U46A C113U	1.16
U46A C146U	1.63
U46A G55A	0.24

Variant	self-cleavage
U46A G70A	0.24
U46A G75A	0.9
U46A G75U	0.84
U46A G114A	1.08
U46A G125C	1.35
U46A G137A	0.98
U46A U47A	1.09
U46A U47C	1.13
U46A U52C	1.56
U46A U52G	1.33
U46A U62C	0.05
U46A U73A	1.35
U46A U73C	1.5
U46A U87C	0.19
U46A U91C	0.63
U46A U96C	0.19
U46A U104A	0.9
U46A U108C	1.37
U46A U119C	0.92
U46A U130G	1.39
U46A U132C	1.32
U46A U134C	1.84
U46A U143C	1.38
U46C A50U	1.26

Variant	self-cleavage
U46C A57C	0.31
U46C A57G	1.04
U46C A59G	0.16
U46C A64G	0.38
U46C A67U	0.12
U46C A69C	0
U46C A69G	0.85
U46C A69U	0.07
U46C A77C	1.01
U46C A78U	1.85
U46C A92U	0.76
U46C A94G	0.4
U46C A107G	1.06
U46C A107U	1.53
U46C A117C	2.44
U46C A121U	1.25
U46C A129C	1.99
U46C A136U	1.44
U46C A138C	0
U46C A138G	1.29
U46C A141G	1.41
U46C A142G	1.35
U46C C51A	1.52
U46C C56A	0.28

Variant	self-cleavage
U46C C61U	0.04
U46C C66U	0.02
U46C C68U	0.44
U46C C76U	2.44
U46C C101U	2.71
U46C C111A	1.17
U46C C111U	1.24
U46C C128U	0.6
U46C C145U	1.58
U46C G48C	1.2
U46C G48U	1.61
U46C G54A	1.21
U46C G55A	0.59
U46C G82A	2.42
U46C G89A	0.04
U46C G93A	0.07
U46C G105A	1.16
U46C G125U	0.8
U46C G126A	0.59
U46C G139U	1.7
U46C U47A	1.37
U46C U47C	1.95
U46C U52A	1.45
U46C U62A	0.05

Variant	self-cleavage
U46C U73G	1.65
U46C U81C	1.46
U46C U85C	0.35
U46C U85G	0.37
U46C U87A	0.13
U46C U87C	0.43
U46C U91A	0.53
U46C U100C	1.89
U46C U102A	1.09
U46C U102C	1.13
U46C U104C	1.96
U46C U108A	1.4
U46C U108C	1.69
U46C U108G	1.15
U46C U109C	1.41
U46C U112A	1.26
U46C U112C	1.78
U46C U115A	1.58
U46C U115G	0
U46C U119A	1.26
U46C U119C	1.13
U46C U119G	1.02
U46C U130A	1.68
U46C U130C	1.54

Variant	self-cleavage
U46C U134A	1.1
U46C U134C	1.53
U46G A50G	0.92
U46G A69G	0
U46G A69U	0.1
U46G A78G	0.6
U46G A79U	2.15
U46G A117G	2.26
U46G A129G	1.93
U46G A140G	1.78
U46G A141G	1.16
U46G G72A	1.07
U46G G144U	0.95
U46G U73G	1.5
U46G U91C	0.74
U46G U112A	1.47
U46G U115C	1.69
U46G U132A	1.4
U47A A50U	0.87
U47A A57G	0.54
U47A A59U	0.81
U47A A64G	0.2
U47A A65G	0.07
